Reference: patent US20160177307

Experiments:
[1] = molecular target: PDGF-BB (platelet-derived growth factor BB) (Homo sapiens) (UniProt P01127); assay: cell_activity
[2] = molecular target: PDGF-BB (platelet-derived growth factor BB) (Homo sapiens) (UniProt P01127); assay: filter
[3] = test system: T1, VEGF-165 (Homo sapiens), P15692-4; assay: filter
T1 sequence: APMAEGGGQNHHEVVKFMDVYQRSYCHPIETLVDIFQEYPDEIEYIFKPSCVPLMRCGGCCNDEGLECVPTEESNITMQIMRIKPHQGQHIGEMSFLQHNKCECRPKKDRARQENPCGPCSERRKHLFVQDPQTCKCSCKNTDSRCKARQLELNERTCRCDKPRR

[4] = test system: T2, VEGF-121 (Homo sapiens), P15692-9; assay: filter
T2 sequence: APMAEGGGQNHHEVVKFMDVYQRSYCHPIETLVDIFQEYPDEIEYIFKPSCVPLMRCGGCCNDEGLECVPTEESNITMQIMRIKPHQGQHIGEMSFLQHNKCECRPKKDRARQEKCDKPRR

[5] = molecular target: PDGF-AB (UniProt P04085+P01127); assay: filter
[6] = test system: T3, rVEGF164, P16612-2; assay: filter; conditions: rest DNA, SB18T, 37 C
T3 sequence: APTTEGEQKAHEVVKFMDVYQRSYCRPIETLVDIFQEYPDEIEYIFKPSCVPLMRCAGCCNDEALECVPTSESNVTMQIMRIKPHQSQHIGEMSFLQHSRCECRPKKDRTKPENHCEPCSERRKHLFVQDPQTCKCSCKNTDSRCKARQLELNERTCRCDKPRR

[7] = test system: T2, VEGF-121 (Homo sapiens), P15692-9; assay: cell_activity; conditions: NapdU at P, VEGFR2 phosphorylation, HUVEC
[8] = molecular target: PDGF-BB (platelet-derived growth factor BB) (Homo sapiens) (UniProt P01127); assay: competition
[9] = test system: T2, VEGF-121 (Homo sapiens), P15692-9; assay: competition; conditions: Nap-dU, 2'-OMe; head-to-tail dimer, no linker; VEGF isoform not given
[10] = test system: T4, VEGF-164 (Rattus norvegicus), P16612-2; assay: filter; conditions: P=Nap-dU
T4 sequence: T3 sequence

[11] = Z BndU, P NapdU, 2'-OMe at superscript-1 positions, C3 spacers, three Heg linkers
[12] = all P are NapdU, rest DNA, SB18T, 37 C
[13] = NapdU at P, C3 spacer 15,18, specificity control
[14] = NapdU at 6,7,12,15,16,18,23,24,25,29, rest DNA, SB18T, 37 C
[15] = VEGF-PDGF heterodimer, no Heg linker, NapdU, BndU
[16] = Bn-dU, Heg linker, 2'-OMe A3, A11, A19, A21, G24
[17] = BndU at 1,2,7,8,16,17,18,20, Heg at 5, 2'-OMe A3,A11,A21,G24

Sequence of PDGF-BB (platelet-derived growth factor BB) (Homo sapiens) (P01127 82-190): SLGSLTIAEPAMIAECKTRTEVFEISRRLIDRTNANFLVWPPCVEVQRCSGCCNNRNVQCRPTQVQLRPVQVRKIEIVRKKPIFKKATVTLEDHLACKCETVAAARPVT
Sequence of PDGF-AB (P01127 82-190, chain 2 of 2, other chains not shown): as the sequence (P01127 82-190) above

Sequence CGACAGCATGTATGCACATCT [5169-4_112] has an IC50 ([1]; NapdU at 9,11,13,19, 2'-OMe G14,A16 and 2'-OMe-NapU21, inhibition of PDGFRbeta phosphorylation) of 1 nM and a Kd ([2]; NapdU at P, 2'-OMe 14,16,21) of 0.0062 nM.
Work on “CCGTTCAAGTGCTTTAGATTTAAATGGTTACGTTACACGCGTTTATAGC [4149-8_315]” yielded a Kd ([3]; Nap-dU, Bn-dU, C3, 2 Heg linker, 2'-OMe, VEGF) of 0.086 nM, a Kd ([4]; VEGF-2Heg-PDGF, NapdU, BndU) of 0.758 nM and a Kd ([2]; VEGF-2Heg-PDGF, NapdU, BndU) of 0.119 nM. The Kd ([5]; VEGF-2Heg-PDGF, NapdU, BndU) was 0.123 nM.
“TTACGTTACACGCGTTTATAGCGCCGTTCAAGTGCTTTAGATTTAAATG [4149-8_320]” showed a Kd ([3]; PDGF-3Heg-VEGF, NapdU, BndU) of 0.0768 nM, a Kd [4, 11] of 0.422 nM and a Kd [2, 11] of 0.015 nM. The Kd ([5]; PDGF-3Heg-VEGF, NapdU, BndU) was 0.0493 nM.
Sequence “CAGCCGTTCAAGTGCTTGTAGGATTTAAA [4867-31_47]” has a Kd ([6]; all P are NapdU) of 83 nM.
With CGACAGCATGTATGCACATCT [5169-4_84] the IC50 ([1]; NapdU at P, 2'-OMe 1,4,6,7,14,15,16,18,20,21, PDGFRb phosphorylation, Hs27) was 3.3 nM and the Kd ([2]; NapdU at P, 2'-OMe 1,4,6,7,14,15,16,18,20,21) was 0.0053 nM.
Sequence “TTACGTTACCGCGTTTATAGCGCCGTTCAAGTGCTTGTAGGATTTAAATGG [4149-8_401 (PDGF_379-HHH-VEGF_192)]” has a Kd ([3]; Z BndU, P NapdU, M MBndU, superscript 1 2'-OMe, C3 spacer, Heg linkers, 5'-amine, Table 20 gives 2.77E-10) of 0.025 nM, a Kd ([4]; Z BndU, P NapdU, M MBndU, superscript 1 2'-OMe, C3 spacer, Heg linkers, 5'-amine, Table 20 gives 3.74E-11) of 0.027 nM and a Kd ([2]; Z BndU, P NapdU, M MBndU, superscript 1 2'-OMe, C3 spacer, Heg linkers, 5'-amine, Table 20 gives 1.51E-11) of 0.0056 nM. It also gave a Kd ([5]; Z BndU, P NapdU, M MBndU, superscript 1 2'-OMe, C3 spacer, Heg linkers, 5'-amine) of 0.193 nM.
With “CCGTTCAAGTGCTTGTAGGATTTAAATGG [4867-31_192]” the IC50 ([7]; 2'-OMe 6,9,12,15,17,18,22,28,29) was 2.1 nM, the Kd ([3]; NapdU at 4,5,10,13,14,16,21,23,27, 2'-OMe at C6,G9,C12,G15,A17,G18,G28,G29 and 2'-OMe-NapU22, 3'-inverted dT in Tables 26-27, 5'-OH form) was 0.041 nM and the Kd ([4]; NapdU at 4,5,10,13,14,16,21,23,27, 2'-OMe at C6,G9,C12,G15,A17,G18,G28,G29 and 2'-OMe-NapU22, 3'-inverted dT in Tables 26-27, 3'-idT, Table 27 gives 3.1E-11, Table 21 2.3E-11) was 0.011 nM. It also gave a Kd ([2]; NapdU at 4,5,10,13,14,16,21,23,27, 2'-OMe at C6,G9,C12,G15,A17,G18,G28,G29 and 2'-OMe-NapU22, 3'-inverted dT in Tables 26-27, specificity control, off-target PDGF-BB) of 57 nM.
“CAGCCGTTCAAGTGCTTGTAGGATTTAAAT [4867-31_46]” gave a Kd [3, 12] of 5.9 nM and a Kd ([6]; all P are NapdU) of 9.6 nM.
Sequence “CGACAGCATGTATGCACATCTCGACAGCATGTATGCACATCT [5169-4_134]” has a Ki ([8]; Nap-dU, head-to-tail dimer, no linker) of 0.028 nM.
In the case of “TTACGACTACGTTACACGCGTTTATAGC [4149-8_39]”, the Kd ([2]; BndU at 1,2,8,12,13,21,22,23,25, rest DNA, SB18T, 37 C, Table 18 gives 87.5 pM) is reported as 0.11 nM and the Kd ([5]; BndU at 1,2,8,12,13,21,22,23,25, rest DNA) is reported as 0.0476 nM.
For “CCGTTCAAGTGCTTTAGATTTAAATGG [4867-31_183]”, the Kd ([3]; Nap-dU, C3 spacer at 15 and 18, VEGF) was 0.138 nM, the Kd ([4]; NapdU at P, C3 spacer 15,18) was 0.091 nM and the Kd [2, 13] was 195 nM. For the same sequence, the Kd [5, 13] was 14.5 nM.
In the case of “AGCCGTTCAAGTGCTTGTAGGATTTAAATGGA [4867-31_43]”, the IC50 [7] is reported as 2.2 nM, the Kd [3, 14] is reported as 0.05 nM and the Kd [4, 14] is reported as 0.29 nM. The Kd ([6]; NapdU at 6,7,12,15,16,18,23,24,25,29) was 0.05 nM.
Sequence “CCGTTCAAGTGCTTTAGATTTAAATGGTTACGTTACACGCGTTTATAGC [4149-8_313]” has a Kd ([3]; Nap-dU (VEGF part), Bn-dU (PDGF part), C3, Heg, 2'-OMe, VEGF) of 0.258 nM, a Kd [4, 15] of 4.31 nM and a Kd [2, 15] of 0.0933 nM. The Kd [5, 15] was 0.165 nM.
Sequence TTACGTTACACGCGTTTATAGCG [4149-8_273] has a Kd [2, 16] of 0.0614 nM and a Kd [5, 16] of 0.189 nM.
In the case of “TTACGTTACACGCGTTTATAGCGCCGTTCAAGTGCTTTAGATTTAAATG [4149-8_319]”, the Kd ([3]; Bn-dU, Nap-dU, C3, 2 Heg linker, 2'-OMe, VEGF) is reported as 0.125 nM, the Kd ([4]; PDGF-2Heg-VEGF, NapdU, BndU) is reported as 1.07 nM and the Kd ([2]; PDGF-2Heg-VEGF, NapdU, BndU) is reported as 0.0242 nM. For the same sequence, the Kd ([5]; PDGF-2Heg-VEGF, NapdU, BndU) was 0.0302 nM.
For “CAGCCGTTCAAGTGCTTGTAGGATTTAAATGGA [4867-31_42]”, the Kd [3, 12] was 0.071 nM, the Kd [4, 12] was 0.2 nM and the Kd ([6]; all P are NapdU) was 0.05 nM.
In the case of “CCGTTCAAGTGCTTGTAGGATTTAAATGGCCGTTCAAGTGCTTGTAGGATTTAAATGG [4867-31_395]”, the Ki [9] is reported as 0.0068 nM.
With “CCGTTCAAGTGCTTTAGATTTAAATGGTTACGTTACACGCGTTTATAGC [4149-8_316]” the Kd ([3]; Nap-dU, Bn-dU, C3, 3 Heg linker, 2'-OMe, VEGF) was 0.157 nM, the Kd ([4]; VEGF-3Heg-PDGF, NapdU, BndU) was 0.5 nM and the Kd ([2]; VEGF-3Heg-PDGF, NapdU, BndU) was 0.0897 nM. For the same sequence, the Kd ([5]; VEGF-3Heg-PDGF, NapdU, BndU) was 0.137 nM.
In the case of “AGCCGTTCAAGTGCTTGTAGGATTTAAATGG [4867-31_51]”, the Kd ([3]; P=Nap-dU, VEGF) is reported as 0.196 nM, the Kd [3, 12] is reported as 0.11 nM and the Kd [10] is reported as 0.074 nM. The Kd ([4]; all P are NapdU, rest DNA, SB18T, 37 C, Table 18 gives 728 pM) was 0.2 nM, the Kd ([2]; all P are NapdU, rest DNA, specificity control) was 126 nM and the Kd ([5]; P=Nap-dU) was 14.8 nM.
CGACAGCATGTATGCACATCT [5169-4_85] was tested, and the IC50 ([1]; NapdU at P, 2'-OMe 1,4,6,7,11,14-18,20,21, PDGFRb phosphorylation, Hs27) was 7.3 nM and the Kd ([2]; NapdU at P, 2'-OMe 1,4,6,7,11,14-18,20,21) was 0.0062 nM.
In the case of “CCGTTCAAGTGCTTTAGATTTAAATGGTTACGTTACACGCGTTTATAGC [4149-8_314]”, the Kd ([3]; Nap-dU, Bn-dU, C3, 1 Heg linker, 2'-OMe, VEGF) is reported as 0.143 nM, the Kd ([4]; VEGF-1Heg-PDGF, NapdU, BndU) is reported as 1.55 nM and the Kd ([2]; VEGF-1Heg-PDGF, NapdU, BndU) is reported as 0.136 nM. The Kd ([5]; VEGF-1Heg-PDGF, NapdU, BndU) was 0.111 nM.
Sequence “TCAATCAGCCGTTCAAGTGCTTGTAGGATTTAAATGG [4867-31_23]” has a Kd ([3]; NapdU at P) of 0.3 nM, a Kd [10] of 0.66 nM and a Kd ([4]; NapdU at P) of 1.3 nM.
For “AGCCGTTCAAGTGCTTGTAGGATTTAAATG [4867-31_52]”, the Kd ([3]; NapdU at P) was 0.17 nM, the Kd [10] was 0.58 nM and the Kd ([4]; NapdU at P) was 2.8 nM.
“TTACGTTACACGCGTTTATAGCGCCGTTCAAGTGCTTTAGATTTAAATG [4149-8_318]” gave a Kd ([3]; Bn-dU, Nap-dU, C3, 1 Heg linker, 2'-OMe, VEGF) of 0.27 nM, a Kd ([4]; PDGF-1Heg-VEGF, NapdU, BndU) of 2.47 nM and a Kd ([2]; PDGF-1Heg-VEGF, NapdU, BndU) of 0.0431 nM. The Kd ([5]; PDGF-1Heg-VEGF, NapdU, BndU) was 0.0818 nM.
Work on CGACAGCATGTATGCACATCT [5169-4_26] yielded an IC50 ([1]; NapdU (5-(N-naphthylmethylcarboxamide)-2'-deoxyuridine) at 9,11,13,19,21, rest DNA, inhibition of PDGFRbeta phosphorylation) of 1.6 nM and a Kd ([2]; NapdU (5-(N-naphthylmethylcarboxamide)-2'-deoxyuridine) at 9,11,13,19,21, rest DNA, SB18T, 37 C) of 0.017 nM.
In the case of CGACAGCATGTATGCACATCT [5169-4_188], the Ki ([8]; as 5169-4_146 plus PS 3' of 4,9,10,11,12, 3'-idT, competition with 32P ligand, SB18T, 37 C) is reported as 0.0086 nM.
In the case of TTACGTTACACGCGTTTATAGCG [4149-8_130], the Kd [2, 17] is reported as 0.0759 nM and the Kd [5, 17] is reported as 0.141 nM.
